In assay [1] the target is T1, mouse CD80 recombinant protein (Mus musculus, UniProt Q00609).
T1 construct: Fc (Fc chimera); His-tag; purchased R&D Systems 740-B1
The assay can be described thus: Phage display screening and enzyme-linked immunosorbent assay screening for CD80 binding. The conditions noted are these: peptide derived from ELISA-positive phage colonies. The method, then:
In ‘Phage Display Screening”, biopanning is applied via phage display technology. First, the G protein magnetic beads (product name: Dynabeads™ Protein G; manufacturer: Invitrogen) are added to mix with the phage peptide library (product name: PhD-12 Phage Display Peptide Library; manufacturer: New England Biolabs), thus the mixture is incubated for 1 hour at 4° C. ambient conditions. Then, a magnet is used to remove the G protein magnetic beads to exclude phages bound to the G protein magnetic beads in the phage peptide library, thereby obtaining a purified phage peptide library. Continuously, the bait carrier is added to the purified phage peptide library and incubated overnight at 4° C. ambient conditions. The bait carrier is magnetic beads immobilized with mouse CD80 recombinant protein (product name: Recombinant Mouse B7-1/CD80 Fc Chimera His-tag Protein, CF; manufacturer: R&D Systems; catalog number: 740-B1). Therefore, the phages in the purified phage peptide library that bind to the mouse CD80 recombinant protein will be bound to the bait carrier, and then the bait carrier will be separated using the magnet. Then the bait carrier is rinsed with cleaning solution to eliminate phages with weak binding force. The cleaning solution is phosphate buffered saline (PBS) containing 0.1% (v/v) polysorbate-20 (Tween 20). […]
On the technique in general: ELISA stands for enzyme-linked immunosorbent assay.

The target of assay [2] is T2, Recombinant Mouse B7-1/CD80 Fc Chimera His-tag Protein, CF (R&D Systems, catalog number 740-B1) (mouse, UniProt Q00609 38-245).
T2 construct: Bought reagent; everywhere else it is mouse; also called mouse CD80 recombinant protein; bait; Fc part of the bought chimera not given; His-tag
T2 sequence (looked up): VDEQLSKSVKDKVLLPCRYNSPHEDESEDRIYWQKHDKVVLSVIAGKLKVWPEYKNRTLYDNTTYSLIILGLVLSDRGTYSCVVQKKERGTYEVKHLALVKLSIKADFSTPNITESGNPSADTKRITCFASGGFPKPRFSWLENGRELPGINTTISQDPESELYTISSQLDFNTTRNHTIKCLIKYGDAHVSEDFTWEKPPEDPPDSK
The assay can be described thus: phage ELISA on plate-coated mouse CD80 recombinant protein, anti-M13 HRP, absorbance at 450 nm. The text has this: The PEG8000/NaCl contains 20% (v/v) PEG8000 (product name: Poly (ethylene glycol); manufacturer: Sigma-Aldrich; Cat. No.: P5413-1KG) and 2.5M NaCl (product name: Sodium chloride; manufacturer: Honeywell fluka; Cat. No.: 31434S-1KG). The above steps are repeated for five rounds in total. In the fourth and fifth rounds, phage clones will be randomly selected for culture, and used in the subsequent enzyme-linked immunosorbent assay (ELISA) to screen out desired phages.
In the “Enzyme Combined Immunosorbent Assay Screening”, the mouse CD80 recombinant protein is first fixed in the wells of a microplate (product name: Clear C-Shaped Immuno Nonsterile 96-Well Plates; manufacturer: Thermo Fisher Scientific; Cat. No.: 446612), and then the phage clones randomly selected in the fourth and fifth rounds of the “Phage Display Screening” are mixed with the diluent at a volume ratio of 1:2 to obtain a phage dilution, which is a phosphate buffered saline comprising 3% (v/v) bovine serum albumin (BSA) and 0.1% (v/v) polysorbate-20. […] Constantly, a microplate reader is adopted to measure the absorbance at 450 nm to confirm whether the phages in each grid of the microplate are still bound to the mouse CD80 recombinant protein in the microplate. […]

T1 sequence (Q00609 with tags, fused parts or gaps limits assumed): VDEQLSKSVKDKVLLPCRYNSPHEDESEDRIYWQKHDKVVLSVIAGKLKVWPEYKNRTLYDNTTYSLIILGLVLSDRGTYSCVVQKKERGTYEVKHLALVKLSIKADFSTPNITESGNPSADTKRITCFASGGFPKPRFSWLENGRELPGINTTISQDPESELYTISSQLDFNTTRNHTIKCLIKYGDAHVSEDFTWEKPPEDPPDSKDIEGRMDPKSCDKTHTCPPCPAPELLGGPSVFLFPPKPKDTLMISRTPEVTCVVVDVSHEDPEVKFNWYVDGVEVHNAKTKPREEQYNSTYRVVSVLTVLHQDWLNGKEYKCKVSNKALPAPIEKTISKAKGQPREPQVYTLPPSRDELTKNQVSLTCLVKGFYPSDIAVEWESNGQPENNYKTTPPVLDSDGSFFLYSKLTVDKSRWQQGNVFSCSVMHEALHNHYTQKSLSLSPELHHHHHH

Take “VLMGDPSVWWTY [first peptide, peptide from phage display screening against mouse CD80 recombinant protein]”: the “binding to CD80 protein” value in assay [1] is “can indeed bind to the CD80 protein”.

B1: second peptide (YLIYEEEPLNSM) (peptide)
peptide: YLIYEEEPLNSM
notes: In the ELISA screening the peptide stood on an M13 phage clone from the PhD-12 Phage Display Peptide Library
For the molecule B1, the binding result in assay [2] is recorded as “binds”.

B2: first peptide (VLMGDPSVWWTY) (peptide)
peptide: VLMGDPSVWWTY
notes: In the ELISA screening the peptide stood on an M13 phage clone from the PhD-12 Phage Display Peptide Library (New England Biolabs); also called novel peptide
With B2, in assay [2], the binding result is on record as “binds”.

The values above are taken from patent US20250302986A1, “NOVEL PEPTIDE, USGAES THEREOF AND PHARMACEUTICAL COMPOSITION HAVING THE SAME” (Taipei Medical University, priority 2024, published 2025).
